Results taken from the supplement of paper PMC9170038.

System: MS2 coat protein
Assay: apparent KD of MS2 coat protein; designed switch direction (-1 OFF switch, 1 ON switch): -1; higher = weaker reporter binding
Procedure, shortened: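 RNA switches sharing common flanks were transcribed by stalled E. coli RNA polymerase on Illumina chips. A doubling series of SNAP-549-labelled MS2 coat protein, from 0.7 or 1.5 nM to 3 µM, was applied in Tris-HCl pH 7.5 buffer with KCl, MgCl2, BSA, DTT, tRNA and Tween-20. Each step lasted 0.8–1.5 h at the bottom of the series and 10–20 min at the top. Normalised cluster fluorescence was curve-fitted, giving apparent KD as the per-design median over clusters.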

[1] = input ligand: microRNA oligo, concentration not stated
[2] = Eterna round: R95, input ligand: microRNA oligo, concentration not stated
[3] = Eterna round: R95, input ligand: FMN 200 uM
[4] = Eterna round: R95, input ligand: none

Sequence	apparent KD of MS2 coat protein (input ligand: FMN 200 uM)	apparent KD of MS2 coat protein [1]	apparent KD of MS2 coat protein (input ligand: none)	apparent KD of MS2 coat protein [2]	apparent KD of MS2 coat protein [3]	apparent KD of MS2 coat protein [4]
CAAAAUGUAUAAGGAUAUCUCGCCAAUAAAGGCAGAGAAGGUAUACCCACUUGAGGAUCACCCAAGUCAGGUGUGCCUGGUGGA [Mutated MS2 EX1.24] (Eterna round: R96, puzzle: Exclusion NG 1)	7.87 nM	7.61 nM	10.9 nM	–	–	–
GGCACACAUGAGGAUCACCCAUGUGAGGAUAUGUGGCGAUCGUCGAUAGACGAUAGCCACAGAAGGCACAGGCC [Mat - Exclusion 1 - Eli Mod - D21] (Eterna round: R97, puzzle: Exclusion 1)	23.2 nM	–	19.2 nM	–	–	–
AGUAACAGAGGAUAUACUAUUUUAUGUGUUUAUUGUUUUGAACAUGAGGAUCACCCAUGUAGAAGGCUGAAUAA [JMF 95] (puzzle: Exclusion 2)	–	–	–	24.5 nM	–	–
AAUAAUAAUGUCAGGAUAUCUAGAGCUGCGGCUCUAGAGAAGGGACAUGAGGAUCACCCAUGUCACUCAAUAAU [BmEx4/3-C5] (Eterna round: R97, puzzle: Brourd's mod of Exclusion 4)	22 nM	–	15.1 nM	–	–	–
UAUUUAUAUGAAGGAUAUACUUAACAUGAGGAUCACCCAUGUGGUGUUGUGAGUGAGUGAGUUUAGUAGAAGGUCAAUUAUUUU [JMF's solution 30] (Eterna round: R96, puzzle: Exclusion NG 2)	282 nM	131 nM	222 nM	–	–	–
UAAUUGUGAGGAUAUUCGUUGUUCUCGGAGACGAGAAUAACGGAGAAGGCACAUGAGGAUCACCCAUGUUCCUU [Mat - Exclusion 4 - JL Mod - D13] (Eterna round: R97, puzzle: Exclusion 4)	98.4 nM	–	18 nM	–	–	–
ACAAACACGGCAGGAUAUCCUCGCAUAUGAUAGGUUGUUCUCCACAUGAGGAUCACCCAUGUCGAGGAGAAGGGCCAUCAUUCU [Tibema] (Eterna round: R96, puzzle: Exclusion NG 2)	16.2 nM	12.7 nM	18.9 nM	–	–	–
CAAUUCUGAGGAUAUGUGCCUCUGGACAUGAGGAUCACCCAUGUGGAGGCUGUAUGGGAGGCAGAAGGUAGAGAUC [Eternabot (L1) Solution 7] (Eterna round: R97, puzzle: Exclusion 5)	16.4 nM	–	18.2 nM	–	–	–
CCUAAGAAAGGAUAUACACCGGUGGGCCGCUGAAUUCAGCAACAUGAGGAUCACCCAUGUAGAAGGUUUAUGGG [Veteso] (Eterna round: R96, puzzle: Exclusion 2)	346 nM	147 nM	262 nM	–	–	–
GGUACUAUCACCUGAGUGGUAGUGCCACAAGCUUGUGAUACAUGAGGAUCACCCAUGUCCUCAUUUGCUCGUCUUAU [JL-sv3-2.28 JL mod] (puzzle: Sensor v3, turn-off variant 2)	–	–	–	1080 nM	289 nM	343 nM
UAUAUAUAGUAAGGAUAUAUAUUUUUUUUUUAAAUAGAAGGUACAGACAUGAGGAUCACCCAUGUUAUAAUAUGGACAUGUGGA [JMF's Solution 3] (Eterna round: R96, puzzle: Exclusion NG 1)	–	113 nM	–	–	–	–
CUGUGCAUAGGAUAUGAAAGAAGAAACAUGAGGAUCACCCAUGUAGCCUCAAAUCUUAUGUCAGAAGGAUGCGUUA [Default title] (Eterna round: R97, puzzle: Exclusion 5)	15.9 nM	–	13.6 nM	–	–	–
ACCAAGUCAGGAUAUCCAGUUAGCCUUCGAGGCUGGGAAUAGGAGAAGGGACAUGAGGAUCACCCAUGUGGGCC [Eternabot (L2) Solution 78] (Eterna round: R97, puzzle: Exclusion 4)	215 nM	–	54.4 nM	–	–	–
AAGUCGAGCGUGAGGAUAUCGUCCGGACGACCCAACGAGAAGGCACAUGAGGAUCACCCAUGUGAUUCAGCUCA [Brourd's EX4 #50] (Eterna round: R97, puzzle: Brourd's mod of Exclusion 4)	20.3 nM	–	18.7 nM	–	–	–
AAGUACUACAAGCUUAGGGACAUGAGGAUCACCCAUGUUCGUCUUAUUGAUCUAGGUACGCUGACGUACCUAGAUCA [Mat - Sensor v3 - turn-off var 1 - JL Mod - D10] (puzzle: Sensor v3, turn-off variant 1)	–	–	–	44.5 nM	16.2 nM	15.5 nM
CUCGUGUCGGAGGAUAUCCAGCGCGAAAAUAAAGGAGAAGGCCGCACAUGAGGAUCACCCAUGUAACAUGGUCC [Onbier] (puzzle: Exclusion 6)	–	–	–	44.8 nM	–	–
ACAUGAGGAUCACCCAUGUGACAAUAAUGGCUGAUACAGAGACAGGAUAUAGGUGCAUAUCUAACCUAGAAGGGUCAUGACUGG [Deportation 72 - Jieux - Exclusion NG 3] (Eterna round: R96, puzzle: Exclusion NG 3)	29.1 nM	30.6 nM	36.6 nM	–	–	–

Sequence	apparent KD of MS2 coat protein (input ligand: FMN 200 uM)	apparent KD of MS2 coat protein [1]	apparent KD of MS2 coat protein (input ligand: none)	apparent KD of MS2 coat protein [2]	apparent KD of MS2 coat protein [3]	apparent KD of MS2 coat protein [4]
UACGAGUUAGGAUAUGCAAUGGGCUCGCUUUCCUUCGAUAAACUUGAGGAUCACCCAAGUAGAAGGAACUUGUA [Mod 36 - Jieux - Exclusion 2] (Eterna round: R97, puzzle: Exclusion 2)	19.9 nM	–	16.2 nM	–	–	–
CUGGUCCGAGGAUAUAUUAUGUGAUACAUGAGGAUCACCCAUGUUAUAUGAUGGAUAUUAAUAGAAGGCGGACUAG [Mat - Exclusion 5 - JL mod - D73] (puzzle: Exclusion 5)	–	–	–	71.5 nM	85.5 nM	83.9 nM
AGCCUAGCAGGAUAUGCCCGGGAUAACAUGAGGAUCACCCAUGUGACUGAUUGAUGUCUUGCAGAAGGGCUAGGGA [JL-EX5-4.03 ViennaUCT mod] (Eterna round: R97, puzzle: Exclusion 5)	211 nM	–	26.1 nM	–	–	–
UUAAUUUAAGGGAUAGAUCAUUACAUGAGGAUCACCCAUGUUGAGGAUAUCAGCUCGUGUAGAGCUGAGAAGGCAACAAUAGGG [ExNG3/14-A3] (Eterna round: R96, puzzle: Exclusion NG 3)	249 nM	377 nM	92.3 nM	–	–	–
CUAAUACAUCAGGAUAUCUUAGCCUAUAGCAUAAGAGAAGGGAUGACAUGAGGAUCACCCAUGUCAAAGGGUGA [eternacac ex6r4 sub20] (Eterna round: R97, puzzle: Exclusion 6)	304 nM	–	929 nM	–	–	–
GCAAGACAUGAGGAUCACCCAUGUGAGGAUAUUGCUCGACACCUGCGCGAAGAGUCGAUAAGAAGGUACAGGGU [Eternabot (L2) Solution 90] (Eterna round: R97, puzzle: Exclusion 1)	69.4 nM	–	52.6 nM	–	–	–
AUUUUAGAAGGAUAUUGACCGGUGGACAUGAGGAUCACCCAUGUCGUCCUGCCCAUUCCGUAAGAAGGUCUAGCGU [Eternabot (L1) Solution 96] (Eterna round: R97, puzzle: Exclusion 5)	23.7 nM	–	24.8 nM	–	–	–
GACCCAACCGUUAGGAUAUAGUCGACCUACGGCGACUAGAAGGAACAUGAGGAUCACCCAUGUGUGCGCACAAC [Eternabot (Original) Solution 25] (Eterna round: R97, puzzle: Brourd's mod of Exclusion 4)	190 nM	–	60.8 nM	–	–	–
AUAUCGUGAGGAUAUCCAAUAUAUGACAUGAGGAUCACCCAUGUUUCCACUCGUACCUCCGGAGAAGGCACAGUUU [Ex5 #71] (Eterna round: R97, puzzle: Exclusion 5)	22.4 nM	–	32.2 nM	–	–	–
CUCCUCAUGGCGCCUAAACACAUGAGGAUCACCCAUGUACAGGCUUCUUGCCGUCUUAUAAUAAAACCGAGGAUGCG [Onleorqula] (puzzle: Sensor v3, turn-off variant 1)	–	–	–	283 nM	43.8 nM	47.3 nM
GGUAAAGGCCGAGGAUAUCGGAAAGGAAGUGUACGAGAAGGCGGCAAAAGAACAUGAGGAUCACCCAUGUGGGCCGAUCUUCCG [16th something] (Eterna round: R96, puzzle: Exclusion NG 1)	23.6 nM	16.8 nM	18 nM	–	–	–
CUAUUCCGAGGAUAUACAUGAGGAUCACCCAUGUCGGGCCUCUGCGUUUAGCGCGAAAGUAGAAGGUGGGUUUC [JL Riri mod 9] (puzzle: Exclusion 3)	–	–	–	28.3 nM	–	–
AUUUCGGCAGGAUAUACAUGAGGAUCACCCAUGUAAAUUUUUCGUUUAACUUGAAUGUGUAGAAGGGCCAUUUA [Ex3 #61] (Eterna round: R97, puzzle: Exclusion 3)	21.8 nM	–	26.6 nM	–	–	–
CAGUACUGAGGAUAUACAUGAGGAUCACCCAUGUGCUUUAGCUAGGAUACUAGCACUAGUAGAAGGCAGUACUG [Fiskers Ex 3 828 mod 10] (puzzle: Exclusion 3)	–	–	–	12.3 nM	–	–
UCACAGUUAGGAUAUGCGAGUUUGGUGUGCAUCCUAGACAUACAUGAGGAUCACCCAUGUAGAAGGAAUAGUGG [Eternabot (L2) Solution 80] (Eterna round: R97, puzzle: Exclusion 2)	34.5 nM	–	27.1 nM	–	–	–
UUUAGUUCAGGAUAUGUAGAAAUUAACAUGAGGAUCACCCAUGUCGAUCCUGAAUUAACUACAGAAGGGAACAUUU [Mod of Brourd 6 - Jieux - Exclusion 5] (Eterna round: R97, puzzle: Exclusion 5)	50 nM	–	14.2 nM	–	–	–
ACAUGUUGCGCAGGAUAUGAGACACAUGAGGAUCACCCAUGUGGCUACAUGUCAUACCAAGCGUCUCAGAAGGGUGUGAACAUG [Ex NG2 #34] (Eterna round: R96, puzzle: Exclusion NG 2)	18.7 nM	11.7 nM	18.1 nM	–	–	–
